Values joined by “and” are separate entries in the source; they are usually repeats but may differ in a detail not shown here. Equal entries are not always repeated. Gly∗ = not defined here; Ac∗ = not defined here
Experiments:
[1] = target: T1, Trypsin (Bos taurus, UniProt P00760); assay: Incubation of single DiMaS peptides with trypsin, LC-MS analysis; type: biochemical; conditions: for Cleaved sequence following incubation with trypsin (FIG. 13): mass spectrum; for Cleavage site on incubation with Trypsin / Cleaved fragment identified after incubation with Trypsin (Table 1): room temperature, 9 h; for Cleavage site on incubation with Trypsin: aliquot every 2 h, LC-MS; for Cleaved fragment identified after incubation with Trypsin (Table 1): HPLC/MS
T1 construct: purchased Sigma T1426
T1 sequence (P00760 24-246): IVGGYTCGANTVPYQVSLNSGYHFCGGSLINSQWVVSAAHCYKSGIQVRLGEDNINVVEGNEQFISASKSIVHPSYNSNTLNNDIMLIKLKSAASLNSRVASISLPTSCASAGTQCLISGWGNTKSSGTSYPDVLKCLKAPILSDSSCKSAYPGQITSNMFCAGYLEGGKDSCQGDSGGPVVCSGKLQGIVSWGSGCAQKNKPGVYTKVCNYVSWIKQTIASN
Protocol: (§1) The peptide (10 μl of 1 mM in Acetonitrile) was treated with a solution of buffer (50 mM HEPES, 150 mM NaCl and 1 μM Zn^2+, 35 μl), and finally Trypsin was added (5 μl, 2.5 μM). The reaction was allowed to take place at room temperature for 9 h and an aliquot of solution was removed for LC-MS analysis.
Peptides 4 and 10 were incubated with trypsin as described above and then analysed by HPLC/MS to give masses according to Table 1.
Compounds 7(2) and 7(13) (10 μl in Acetonitrile) were treated with a solution of buffer (50 mM HEPES, 150 mM NaCl and 1 μM Zn^2+, 35 μl), and finally Trypsin was added (5 μl, 2.5 μM). The reaction was allowed to take place at room temperature for 9 h and an aliquot of solution was removed for LC-MS analysis every 2 h.

[2] = target: T2, neutral endopeptidase (NEP) (Homo sapiens, UniProt P08473); assay: Incubation of DiMaS peptides with NEP, LC-MS analysis; type: biochemical; conditions: room temperature, 9 h, HPLC/MS
T2 construct: purchased BioMep
Protocol: as §1, with “neutral endopeptidase (NEP)” for “Trypsin”
Peptides 4, 6 and 10 were incubated with NEP as described above and then analysed by HPLC/MS to give masses according to Table 1.

T2 sequence (P08473 whole entry, species assumed): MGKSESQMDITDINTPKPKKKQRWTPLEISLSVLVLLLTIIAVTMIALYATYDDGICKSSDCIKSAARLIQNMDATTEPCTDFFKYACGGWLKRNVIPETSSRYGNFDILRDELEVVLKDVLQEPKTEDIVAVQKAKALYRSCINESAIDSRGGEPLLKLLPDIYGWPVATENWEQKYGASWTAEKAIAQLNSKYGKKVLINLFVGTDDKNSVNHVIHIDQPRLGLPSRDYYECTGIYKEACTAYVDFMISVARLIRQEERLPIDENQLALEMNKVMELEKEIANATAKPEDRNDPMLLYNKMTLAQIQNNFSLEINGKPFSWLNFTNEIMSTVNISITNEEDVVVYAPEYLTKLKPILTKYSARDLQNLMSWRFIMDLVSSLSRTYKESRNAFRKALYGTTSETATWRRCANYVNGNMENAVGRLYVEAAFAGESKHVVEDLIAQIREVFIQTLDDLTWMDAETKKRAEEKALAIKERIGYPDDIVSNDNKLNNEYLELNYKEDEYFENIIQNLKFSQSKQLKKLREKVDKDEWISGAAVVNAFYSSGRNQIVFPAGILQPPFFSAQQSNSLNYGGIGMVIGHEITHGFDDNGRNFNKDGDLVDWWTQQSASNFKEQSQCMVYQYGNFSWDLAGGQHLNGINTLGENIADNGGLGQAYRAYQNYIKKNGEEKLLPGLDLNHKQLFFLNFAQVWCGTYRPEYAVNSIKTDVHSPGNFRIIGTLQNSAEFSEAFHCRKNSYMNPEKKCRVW

Substance | Cleaved sequence following incubation with trypsin (FIG. 13) [1] | Cleavage site on incubation with Trypsin [1] | Cleaved fragment identified after incubation with Trypsin (Table 1) [1] | Cleaved fragment identified after incubation with NEP (Table 1) [2]
Ac-Gly* Ala Ala Phe Lys Arg Ala Gly Ala Ala Lys(Ac*)-NH2 ({Ac-Gly∗}-AAFKRAGAAK(Ac∗)-NH2; reading uncertain; also: isotope labels: Gly* with D2 or H2, Ac* with D3 or H3, printed as Ac-Gly* Ala Ala Phe Lys Arg Ala Gly Ala Ala Lys(Ac*)-NH2) [7(17)] | Ac-Gly-Ala-Ala-Phe-Lys-Arg-OH | – | – | –
Ac-Gly* Ala Gly Arg Ala Asn Ile Asp Phe Ala Lys(Ac*)-NH2 ({Ac-Gly∗}-AGRANIDFAK(Ac∗)-NH2; reading uncertain; also: isotope labels: Gly* with D2 or H2, Ac* with D3 or H3, printed as Ac-Gly* Ala Gly Arg Ala Asn Ile Asp Phe Ala Lys(Ac*)-NH2) [7(2)] | H2N-Ala-Asn-Ile-Asp-Phe-Ala-Lys(ac)-NH2 | cleavage after the arginine residue | – | –
Ac-Gly* Ala Phe Leu Ala Arg Asn Ile Asp Leu Lys(Ac*)-NH2 ({Ac-Gly∗}-AFLARNIDLK(Ac∗)-NH2; reading uncertain; also: isotope labels: Gly* with D2 or H2, Ac* with D3 or H3, printed as Ac-Gly* Ala Phe Leu Ala Arg Asn Ile Asp Leu Lys(Ac*)-NH2) [7(13)] | – | cleavage after the arginine residue | – | –
AcGly-Pro-Arg-Ala-Ala-Ala-Gly-NH2 (Ac-GPRAAAG-NH2; also: partly isotope-labelled (D in acetyl and a Gly), extent not given here) [Peptide 4] | – | – | 371, 374: AcGlyProArgOH and H2NalaAlaAlaGlyNH2 | AcGlyProArgAlaOH and 239, 241: H2NAlaAlaGlyNH2
AcHis-His-Gln-Lys-Leu-Val-Phe-Phe-Ala-Gly-NH2 (Ac-HHQKLVFFAG-NH2; also: partly isotope-labelled (D in acetyl and a Gly), extent not given here) [Peptide 10] | – | – | 591, 594 AcHisHisGlnLysOH and H2NleuValPhePheAlaGlyNH2 | AcHisHisGlnLysLeuOH and 315, 317: NH2PheAlaGlyNH2
AcSer-Glu-Val-Asn-Leu-Asp-Ala-Glu-Phe-Gly-NH2 (Ac-SEVNLDAEFG-NH2; also: partly isotope-labelled (D in acetyl and a Gly), extent not given here) [Peptide 6] | – | – | – | H2NleuAspAlaGluPheGlyNH2
